Data published in publication PMC8497999 (iScience, 2021).
Numbering of substitutions follows the chain as printed. Names and notes keep the numbering of the source. Like-named read-outs stand apart in the source and are kept apart here.

T1: His6-ECSIT (mature human mitochondrial ECSIT with N-terminal His tag) (human, UniProt Q9BQ95 49-431)
T1 sequence: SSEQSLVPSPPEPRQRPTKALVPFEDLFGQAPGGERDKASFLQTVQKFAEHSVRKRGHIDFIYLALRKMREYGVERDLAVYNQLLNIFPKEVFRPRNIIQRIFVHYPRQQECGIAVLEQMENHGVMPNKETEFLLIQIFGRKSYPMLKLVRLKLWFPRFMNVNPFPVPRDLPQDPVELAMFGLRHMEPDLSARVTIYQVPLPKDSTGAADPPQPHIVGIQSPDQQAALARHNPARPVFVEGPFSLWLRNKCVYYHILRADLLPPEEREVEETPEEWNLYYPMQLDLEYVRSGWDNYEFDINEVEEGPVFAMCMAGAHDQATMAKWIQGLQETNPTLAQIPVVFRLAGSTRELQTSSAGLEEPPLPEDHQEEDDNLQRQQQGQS

B1: Loop12-ACAD9 (ACAD9-His6 with the linker between Thr450 and Asp480 replaced by 12 residues of GGS repeats) (enzyme)
chain: AFAKELFLGKIKKKEVFPFPEVSQDELNEINQFLGPVEKFFTEEVDSRKIDQEGKIPDETLEKLKSLGLFGLQVPEEYGGLGFSNTMYSRLGEIISMDGSITVTLAAHQAIGLKGIILAGTEEQKAKYLPKLASGEHIAAFCLTEPASGSDAASIRSRATLSEDKKHYILNGSKVWITNGGLANIFTVFAKTEVVDSDGSVKDKITAFIVERDFGGVTNGKPEDKLGIRGSNTCEVHFENTKIPVENILGEVGDGFKVAMNILNSGRFSMGSVVAGLLKRLIEMTAEYACTRKQFNKRLSEFGLIQEKFALMAQKAYVMESMTYLTAGMLDQPGFPDCSIEAAMVKVFSSEAAWQCVSEALQILGGLGYTRDYPYERILRDTRILLIFEGTNEILRMYIALTGLQHAGRILTTGGSGGSGGSGGSDLGLTGNHGVVHPSLADSANKFEENTYCFGRTVETLLLRFGKTIMEEQLVLKRVANILINLYGMTAVLSRASRSIRIGLRNHDHEVLLANTFCVEAYLQNLFSLSQLDKYAPENLDEQIKKVSQQILEKRAYICAHPLDRTC
B2: His6-C-ECSIT (C-terminal domain of ECSIT, Leu249-Ser431, with N-terminal His tag) (domain or fragment)
chain: LPKDSTGAADPPQPHIVGIQSPDQQAALARHNPARPVFVEGPFSLWLRNKCVYYHILRADLLPPEEREVEETPEEWNLYYPMQLDLEYVRSGWDNYEFDINEVEEGPVFAMCMAGAHDQATMAKWIQGLQETNPTLAQIPVVFRLAGSTRELQTSSAGLEEPPLPEDHQEEDDNLQRQQQGQS
B3: C-ECSIT, tag-free (C-terminal domain of ECSIT, Leu249-Ser431) (domain or fragment)
chain: B2 chain
B4: ACAD9-His6 R469W (enzyme)
chain: AFAKELFLGKIKKKEVFPFPEVSQDELNEINQFLGPVEKFFTEEVDSRKIDQEGKIPDETLEKLKSLGLFGLQVPEEYGGLGFSNTMYSRLGEIISMDGSITVTLAAHQAIGLKGIILAGTEEQKAKYLPKLASGEHIAAFCLTEPASGSDAASIRSRATLSEDKKHYILNGSKVWITNGGLANIFTVFAKTEVVDSDGSVKDKITAFIVERDFGGVTNGKPEDKLGIRGSNTCEVHFENTKIPVENILGEVGDGFKVAMNILNSGRFSMGSVVAGLLKRLIEMTAEYACTRKQFNKRLSEFGLIQEKFALMAQKAYVMESMTYLTAGMLDQPGFPDCSIEAAMVKVFSSEAAWQCVSEALQILGGLGYTRDYPYERILRDTRILLIFEGTNEILRMYIALTGLQHAGRILTTRIHELKQAKVSTVMDTVGWRLRDSLGRTVDLGLTGNHGVVHPSLADSANKFEENTYCFGRTVETLLLRFGKTIMEEQLVLKRVANILINLYGMTAVLSRASRSIRIGLRNHDHEVLLANTFCVEAYLQNLFSLSQLDKYAPENLDEQIKKVSQQILEKRAYICAHPLDRTC
B5: ACAD9 (non-tagged wild type) (enzyme)
chain: B4 chain with W432R
B6: ACAD9-His6 R518H (enzyme)
chain: B4 chain with W432R, R481H
B7: ACAD9-His6 R532W (enzyme)
chain: B4 chain with W432R, R495W
B8: ACAD9-His6 (wild type ACAD9 with a C-terminal His-tag) (enzyme)
chain: B4 chain with W432R
B9: ACAD9-His6 E426Q (enzyme)
chain: B4 chain with E389Q, W432R
B10: His6-SMT3-NDUFAF1 (SUMO fusion of mature human NDUFAF1) (natural protein)
chain: YPFLGIRFAEYSSSLQKPVASPGKASSQRKTEGDLQGDHQKEVALDITSSEEKPDVSFDKAIRDEAIYHFRLLKDEIVDHWRGPEGHPLHEVLLEQAKVVWQFRGKEDLDKWTVTSDKTIGGRSEVFLKMGKNNQSALLYGTLSSEAPQDGESTRSGYCAMISRIPRGAFERKMSYDWSQFNTLYLRVRGDGRPWMVNIKEDTDFFQRTNQMYSYFMFTRGGPYWQEVKIPFSKFFFSNRGRIRDVQHELPLDKISSIGFTLADKVDGPFFLEIDFIGVFTDPAHTEEFAYENSPELNPRLFK
B11: ECSIT, tag-free (mature human mitochondrial ECSIT) (natural protein)
chain: T1 sequence

Key:
SEC = molecular target: the molecule itself; assay: SEC
[1] = molecular target: B5; assay: SEC
[2] = molecular target: B8; assay: pull-down
SEC-SAXS = molecular target: the molecule itself; assay: SEC-SAXS
[3] = molecular target: T1, His6-ECSIT (mature human mitochondrial …); assay: SEC
[4] = molecular target: T1, His6-ECSIT (mature human mitochondrial …); assay: SEC; remark: listed apart in the source

## B1
SEC
  stoichiometry N: 2

## B2
SEC
  stoichiometry N: 4
[1]
  stoichiometry N: 1 C-ECSIT monomer per ACAD9 monomer (4:4)

## B3
[2]
  stoichiometry N: ~1 monomer:monomer

## B4
SEC
  stoichiometry N: 2

## B5
SEC-SAXS
  stoichiometry N: 2

## B6
SEC
  stoichiometry N: 2

## B7
SEC
  stoichiometry N: 2

## B8
SEC
  stoichiometry N: 2

## B9
SEC
  stoichiometry N: 2

## B10
[3]
  stoichiometry N: 1 monomer:monomer
[4]
  stoichiometry N: 1 NDUFAF1 monomer per ECSIT monomer (2:2)

## B11
[2]
  stoichiometry N: ~1 monomer:monomer
